Measurements published in patent US20090291081A1 (AbbVie / Abbott, published 2009).

T1: human IL-1α (human, UniProt P01583 113-271)
T1 sequence (looked up): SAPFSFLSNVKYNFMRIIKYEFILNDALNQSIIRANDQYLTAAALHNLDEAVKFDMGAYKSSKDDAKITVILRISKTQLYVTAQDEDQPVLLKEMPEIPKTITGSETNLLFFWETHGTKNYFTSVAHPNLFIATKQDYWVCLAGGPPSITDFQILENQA


The binders below were run against T1, human IL-1α (assay: cell-based or functional assay).

Binder	ND50 [nM]
ABT1-18 (other) VL: DIQMTQSPSSLSASVGDRVTITCRASQSIQRWLAWYQQKPGKAPKLLIYFASQLQSGVPSRFSGSGSGTDFTLTISSLQPEDFATYYCQQLLRLPKTFGQGTKVEIKR	> 10000
ABT1-95-86 (other) VL: DIQMTQSPSSLSASVGDRVTITCRASQPIVRNLRWYQQKPGKAPKLLIYSTSYLEPGVPSRFSGSGSGTDFTLTISSLQPEDFATYHCQQGYRWPVTFGQGTKVEIKR	0.2
ABT1-95-174 (other) VL: DIQMTQSPSSLSASVGDRVTITCRASRPIVRNLRWYQQKPGKAPKLLIYSVSYLEPGVPSRFSGSGSGTDFTLTISSLQPEDFATYHCRQGYRWPVTFGQGTKVEIKR	0.01
ABT1-95-177 (other) VL: DIQMTQSPSSLSASVGDRVTITCRASQPIVRNLRWYQQKPGKAPKLLIYASSYLEPGVPSRFSGSGSGTDFTLTISSLQPEDFATYHCRQGYRWPVTFGQGTKVEIKR	0.008
ABT1-95-181 (other) VL: DIQMTQSPSSLSASVGDRVTITCRASKPIVRNMRWYQQKPGKAPKLLIYSVSYLEPGVPSRFSGSGSGTDFTLTISSLQPEDFATYHCLQGYRWPPTFGQGTKVEIKR	0.014
ABT1-95-182 (other) VL: DIQMTQSPSSLSASVGDRVTITCRASKPGVRNLRWYQQKPGKAPKLLIYSVSYLEPGVPSRFSGSGSGTDFTLTISSLQPEDFATYHCLQGYRWPPTFGQGTKVEIKR	0.005
ABT1-95-A2 (other) VL: DIQMTQSPSSLSASVGDRVTITCRILQPPGRNLRWYQQKPGKAPKLLIYSKSFLEPGVPSRFSGSGSGTDFTLTISSLQPEDFATYHCQQGYRWPVTFGQGTKVEIKR	0.133
ABT1-155 (other) VL: DIQMTQSPSSLSASVGDRVTITCRASSPIVANLRWYQQKPGKAPKLLIYAASSLQSGVPSRFSGSGSGTDFTLTISSLQPEDFATYYCTQGYVWPPTFGQGTKVEIKR	20
ABT1-221 (other) VL: DIQMTQSPSSLSASVGDRVTITCRASQDIWPYLMWYQQKPGKAPKLLIYYSSMLQSGVPSRFSGSGSGTDFTLTISSLQPEDFATYYCQQFRRWPYTFGQGTKVEIKR	100
ABT1-3 (other) VL: DIQMTQSPSSLSASVGDRVTITCRASQSIWTELKWYQQKPGKAPKLLIYGASLLQSGVPSRFSGSGSGTDFTLTISSLQPEDFATYYCQQFAYFPFTFGQGTKVEIKR	1000
ABT1-9 (other) VL: DIQMTQSPSSLSASVGDRVTITCRASQSIGSSLLWYQQKPGKAPKLLIYLASRLQSGVPSRFSGSGSGTDFTLTISSLQPEDFATYYCQQFRSTPNTFGQGTKVEIKR	4000
ABT1-10 (other) VL: DIQMTQSPSSLSASVGDRVTITCRASQSIVPNLRWYQQKPGKAPKLLIYGASTLQSGVPSRFSGSGSGTDFTLTISSLQPEDFATYYCQQGYVYPGTFGQGTKVEIKR	> 20000
ABT1-11 (other) VL: DIQMTQSPSSLSASVGDRVTITCRASQSIPYNLRWYQQKPGKAPKLLIYSASRLQSGVPSRFSGSGSGTDFTLTISSLQPEDFATYYCQQGYSWPMTFGQGTKVEIKR	> 20000

What follows are binders tested against T1, human IL-1α (assay: Table 62 IC50; RBA presumed).

Binder	IC50 [nM]
ABT1-141-1 (other, VK dAb) VL: DIQMTQSPSSLSASVGDRVTITCRASQWIQKQLAWYQQKPGKAPKLLIYSGSWLQSGVPSRFSGSGSGTDFTLTISSLQPEDFATYYCQQHLRVPFTLGQGTKVEIKR	> 100
ABT1-141-3 (other, VK dAb) VL: DIQMTQSPSSLSASVGDRVTITCRASQWIQKQLAWYQQKPGKTPKLLIYSQSHLQSGVPSRFSGSGSGTDFTLTISSLQPEDFATYYCQQHLRVPFTFGQGTKVEIKR	80
ABT1-141-6 (other, VK dAb) VL: DIQMTQSPSSLSASVGDRVTITCRASQWIQKQLAWYQQKPGKAPKLLIYSSSYLQSGVPSRFSGSGSGTDFTLTISSLQPEDFATYYCLQHLRVPFTFGQGTKVEIKR	20
ABT1-141-7 (other, VK dAb) VL: DIQMTQSPSSLSASVGDRITITCRASQWIQKQLAWYQLKPGKAPKLLIYSSSYLQSGVPSRFSGSGSGTDFTLTISSLQPEDFATYYCQQHLRVPFTFGQGTKVEIKR	10
ABT1-141-8 (other, VK dAb) VL: DIQMTQSPSSLSASVGDRVTITCRASQWIQKQLAWYQLKPGKAPKLLIYSSSWLQSGVPSRFSGSGSGTDFTLTISSLQPEDFATYYCQQHLRVPFTFGQGTKVEIKR	10
ABT1-141-9 (other, VK dAb) VL: DIQVTQSPSSLSASVGDRVTITCRASQWIQKQLAWYQQKPGKAPKLLIYSSSWLQSGVPSRFSGSGSGTDFTLTISSLQPEDFATYYCQQHLRVPFTFGQGTKVEIKR	10
ABT1-141-14 (other, VK dAb) VL: DIQMTQSPSSLSASVGDRVTITCRASQWIQKQLAWYQQKPGKAPRLLIYSSSYLQSGVPSRFSGSGSGTDFTLTISSLQPEDFATYYCQQNLSVPFTFGQGTKVEIKR	10
ABT1-141-16 (other, VK dAb) VL: DIQMTQSPSSLSASVGDRVAITCRASQWIQKQLAWYQQKPGKAPKLLIYSSSYLQSGVPSRFSGSGSGTDFTLTISSLQPEDFATYYCQHHLRVPFTFGQGTKVEIKR	20
ABT1-141-17 (other, VK dAb) VL: DIQMTQSPSSLSASVGDRVTITCRASQWIQKQLAWYQLKPGKAPKLLIYSSSYLQSGVPSRFSGSGSGTDFTLTISSLQPEDFATYYCQQHLRVPFTFGQGTKVEIKR	30
ABT1-141-18 (other, VK dAb) VL: DIQMTQSPSSLSASVGDRVTITCRASQWIQKQLAWYQQKPGKVPKLLIYSSSYLQSGVPSRFSGSGSGTDFTLTISSLQPEDFATYYCQQHLRVPFTFGQGTKVEIKR	80
ABT1-141-19 (other, VK dAb) VL: DIQMTQSPSSLSASVGDRVTITCRASQWIQKQLAWYQQKPGKAPKLLIYSSSWLQSGVRSRFSGSGSGTDFTLTISSLQPEDFATYYCQQHLRVPFTFGQGTKVEIKR	50
ABT1-141-21 (other, VK dAb) VL: DIQMTQSPSSLSASVGDRVTITCRASQWIQKQLAWYQQKPGKAPKLLIYSSSYLQSGVPSRFSGSGSGTDFTLTISSLQPEDFATYYCQQQMSSPRTFGQGTKVEIKR	60
ABT1-141-22 (other, VK dAb) VL: DIQMTQSPSSLSASVGDRVTITCRASQWIQKQLAWYQQKPGKAPKLLIYSSSYLQSGVPSRFSGSGSGTDFTLTISSLQPEDFATYYCQQQMAPPRTFGQGTKVEIKR	30
ABT1-141-23 (other, VK dAb) VL: DIQMTQSPSSLSASVGDRVTITCRASQWIQKQLAWYQQKPGKAPKLLIYSSSYLQSGVPSRFSGSGSGTDFTLTISSLQPEDFATYYCQQQMQPPRTFGQGTKVEIKR	80
ABT1-141-46 (other, VK dAb) VL: DIQMTQSPSSLSASVGDRVTITCRASQWIQKQLAWYQQKPGKAPKLLIYSSSHLQSGVPSRFSGSGSGTDFTLTISSLQPEDFATYYCQQHLRVPMTFGQGTKVVIKR	3
ABT1-142 (other, VK dAb) VL: DIQMTQSPSSLSASVGDRVTITCRASQSINDVLAWYQQKPGKAPRLLIYSASYLQSGVPSRFSGSGSGTDFTLTISSLQPEDFATYYCQQYISLPFTFGQGTKVEIKR	200
ABT1-143 (other, VK dAb) VL: DIQMTQSPSSLSASVGDRVTITCRASQRIDRHLSWYQQKPGKAPKLLIYKTSKLQSGVPSRFSGSGSGTDFTLTISSLQPEDFATYYCQQLHAKPFTFGQGTKVEIKR	> 500
ABT1-144 (other, VK dAb) VL: DIQMTQSPSSLSASVGDRVTITCRASQRIKKYLAWYQQKPGKAPRLLIYRSSQLQSGVPSRFSGSGSGTDFTLTISSLQPEDFATYYCQQSFKRPVTFGQGTKVEIKR	100
ABT1-145 (other, VK dAb) VL: DIQMTQSPSSLSASVGDRVTITCRASQDIDDGLAWYQQKPGKAPKLLIYRTSRLQSGVPSRFSGSGSGTDFTLTISSLQPEDFATYYCQPTWLPPCTFGQGTKVEIKR	> 500
ABT1-146 (other, VK dAb) VL: DIQMTQSPSSLSASVGDRVTITCRASQNIKTFLHWYQQKPGKAPKLLIYRVSHLQSGVPSRFSGSGSGTDFTLTISSLQPEDFATYYCQQEYRIPLTFGQGTKVEIKR	> 500
ABT1-159 (other, VK dAb) VL: DIQMTQSPSSLSASVGDRVTITCRASSPIGMDLFWYQQKPGKAPRLLIDGVSGLQSGVPSRFSGSGSGTDFTLTISSLQPEDFATYYCSQHWPAPLTFGQGTKVEIKR	200
ABT1-172 (other, VK dAb) VL: DIQMTQSPSSLSASVGDRVTITCRASQRIRNGLEWYQQKPGKAPKLLIWGSSRLQSGVPSRFSGSGSGTDFTLTISSLQPEDFATYYCAQTVWGPATFGQGTKVEIKR	> 1000
